In US20210032365A1 (Chugai, published 2021):
Residue numbers refer to the chain shown, from its start.

T1: human C1s (human, UniProt P09871 16-688)
T1 construct: also called hC1s; serum-derived human C1s (CompTech)
T1 sequence: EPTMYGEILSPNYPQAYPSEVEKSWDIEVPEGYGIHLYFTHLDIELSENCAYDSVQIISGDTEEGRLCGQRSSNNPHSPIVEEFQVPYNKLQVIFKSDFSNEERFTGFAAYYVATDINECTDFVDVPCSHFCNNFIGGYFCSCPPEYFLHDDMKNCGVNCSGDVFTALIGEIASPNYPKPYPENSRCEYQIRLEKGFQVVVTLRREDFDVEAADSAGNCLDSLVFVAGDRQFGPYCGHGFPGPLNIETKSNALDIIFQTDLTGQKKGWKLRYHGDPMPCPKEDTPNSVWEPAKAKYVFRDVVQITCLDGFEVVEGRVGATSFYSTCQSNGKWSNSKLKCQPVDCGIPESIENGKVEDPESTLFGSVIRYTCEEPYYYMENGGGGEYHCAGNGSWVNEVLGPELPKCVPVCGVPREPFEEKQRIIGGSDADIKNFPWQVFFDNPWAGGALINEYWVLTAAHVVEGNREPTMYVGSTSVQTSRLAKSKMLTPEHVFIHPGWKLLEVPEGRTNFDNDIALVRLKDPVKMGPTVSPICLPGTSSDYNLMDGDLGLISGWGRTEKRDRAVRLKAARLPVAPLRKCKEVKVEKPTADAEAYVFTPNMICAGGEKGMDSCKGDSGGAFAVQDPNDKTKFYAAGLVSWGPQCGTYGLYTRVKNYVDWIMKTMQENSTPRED

B1: C1_IPN009VH2-SG4GK/IPN93L0028-SK1 (antibody, human IgG4 S228P, kappa, name in Kabat numbering, V domains shown)
VH: EVMLVESGGGLVKPGGSLRLSCAASGFTFSNYAMSWVRQAPGKGLEWVATISSGGSHTYYLDSVKGRFTISRDNSKDTLYLQMNSLRAEDTALYYCARLFTGYAMDYWGQGTLVTVSS
VL: QIVLTQSPATLSLSPGERATLSCTASSSVSSSYLHWYQQKPGKAPKLWIYSTSNLASGVPSRFSGSGSGTDYTLTISSLQPEDFATYYCHQYHRHPPITFGQGTKLEIKR
notes: also called IPN009VH2/IPN93L0028
B2: C1_IPN92H0033-SG4GK/IPN93L0021-SK1 (antibody, human IgG4 S228P, kappa, name in Kabat numbering, V domains shown)
VH: B1 VH with Y103H
VL: B1 VL with H95L
notes: also called IPN92H0033/IPN93L0021
B3: C1_IPN92H0033-SG4GK/IPN93L0023-SK1 (antibody, human IgG4 S228P, kappa, name in Kabat numbering, V domains shown)
VH: B1 VH with Y103H
VL: B1 VL with H93Y
notes: also called IPN92H0033/IPN93L0023
B4: C1_IPN92H0026-SG4GK/IPN93L0030-SK1 (antibody, human IgG4 S228P, kappa, name in Kabat numbering, V domains shown)
VH: B1 VH with G66H
VL: B1 VL with H93Y, P96H
notes: also called IPN92H0026/IPN93L0030
B5: C1_IPN92H0026-SG4GK/IPN93L0028-SK1 (antibody, human IgG4 S228P, kappa, name in Kabat numbering, V domains shown)
VH: B1 VH with G66H
VL: B1 VL
notes: also called IPN92H0026/IPN93L0028
B6: C1_IPN009VH2-SG4GK/IPN93L0030-SK1 (antibody, human IgG4 S228P, kappa, name in Kabat numbering, V domains shown)
VH: B1 VH
VL: B1 VL with H93Y, P96H
notes: also called IPN009VH2/IPN93L0030
B7: C1_IPN92H0026-SG4GK/IPN93L0031-SK1 (antibody, human IgG4 S228P, kappa, name in Kabat numbering, V domains shown)
VH: B1 VH with G66H
VL: B1 VL with P96H
notes: also called IPN92H0026/IPN93L0031
B8: C1_IPN92H0026-SG4GK/IPN93L0023-SK1 (antibody, human IgG4 S228P, kappa, name in Kabat numbering, V domains shown)
VH: B1 VH with G66H
VL: B1 VL with H93Y
notes: also called IPN92H0026/IPN93L0023
B9: C1_IPN009VH2-SG4GK/IPN93L0031-SK1 (antibody, human IgG4 S228P, kappa, name in Kabat numbering, V domains shown)
VH: B1 VH
VL: B1 VL with P96H
notes: also called IPN009VH2/IPN93L0031
B10: C1_IPN92H0026-SG4GK/IPN93L0021-SK1 (antibody, human IgG4 S228P, kappa, name in Kabat numbering, V domains shown)
VH: B1 VH with G66H
VL: B1 VL with H95L
notes: also called IPN92H0026/IPN93L0021
B11: C1_IPN92H0033-SG4GK/IPN93L0029-SK1 (antibody, human IgG4 S228P, kappa, name in Kabat numbering, V domains shown)
VH: B1 VH with Y103H
VL: B1 VL with H95L, P96H
notes: also called IPN92H0033/IPN93L0029
B12: C1_IPN92H0033-SG4GK/IPN93L0028-SK1 (antibody, human IgG4 S228P, kappa, name in Kabat numbering, V domains shown)
VH: B1 VH with Y103H
VL: B1 VL
notes: also called IPN92H0033/IPN93L0028
B13: C1_IPN009VH2-SG4GK/IPN93L0029-SK1 (antibody, human IgG4 S228P, kappa, name in Kabat numbering, V domains shown)
VH: B1 VH
VL: B1 VL with H95L, P96H
notes: also called IPN009VH2/IPN93L0029
B14: C1_IPN92H0026-SG4GK/IPN93L0024-SK1 (antibody, human IgG4 S228P, kappa, name in Kabat numbering, V domains shown)
VH: B1 VH with G66H
VL: B1 VL with H93Y, H95L, P96H
notes: also called IPN92H0026/IPN93L0024
B15: C1_IPN92H0026-SG4GK/IPN93L0029-SK1 (antibody, human IgG4 S228P, kappa, name in Kabat numbering, V domains shown)
VH: B1 VH with G66H
VL: B1 VL with H95L, P96H
notes: also called IPN92H0026/IPN93L0029

Columns and labels:
[1] = target: T1, human C1s; assay: SPR, Ab captured; pH 7.4, 1.2 mM Ca
Protocol: (§1) All variants were transiently expressed and purified by the method described above. The binding affinity of each histidine-substituted variant at pH 7.4 and pH 5.8 was determined at 37 degrees C. using Biacore T200 instrument (GE Healthcare). Recombinant Protein A/G (Pierce) was immobilized onto all flow cells of a CM4 sensor chip using an amine coupling kit (GE Healthcare). Antibodies and analytes were prepared in 7(+) buffer (20 mM ACES, 150 mM NaCl, 1.2 mM CaCl2, 0.05% Tween 20, 0.005% NaN3, pH 7.4), 5(+) buffer (20 mM ACES, 150 mM NaCl, 1.2 mM CaCl2, 0.05% Tween 20, 0.005% NaN3, pH 5.8), or 5(−) buffer (20 mM ACES, 150 mM NaCl, 3 micro M CaCl2, 0.05% Tween 20, 0.005% NaN3, pH 5.8). Each antibody was captured onto the sensor surface by protein A/G. Antibody capture levels were aimed at 200 resonance unit (RU). Serum-derived human C1s (CompTech) or recombinant C1s prepared in EXAMPLE 1 was injected at 50 nM, followed by dissociation. The sensor surface was regenerated in each cycle with 10 mM Glycine-HCl, pH 1.5. […] The ratio of KD 5.8+ to KD 7.4+(“KD 5+/7+”) and that of KD 5.8− to KD 7.4+(“KD 5−/7+”) were calculated. When the KD 5+/7+ or KD 5−/7+ of a variant is larger than that of the parent antibody IPN009VH2-SG4GK/IPN009VK3-SK1, that variant is considered to be “pH”- or “pH and Ca”-dependent, respectively. When binding response in 5(+) buffer and/or in 5(−) buffer of a variant is much lower than that of IPN09VH2/IPN009VK3, that variant is also considered as “pH”- and/or “pH and Ca”-dependent. Therefore, such mutations are effective to generate “pH”- and/or “pH and Ca”-dependent antibody. To further enhance “pH” and/or “pH and Ca” dependency, a combination of histidine mutations was conducted. Antibodies with combinations of histidine mutations were evaluated using Biacore by the method described above.

[2] = target: T1, human C1s; assay: SPR, Ab captured; pH 5.8, 1.2 mM Ca
Protocol: as §1

[3] = target: T1, human C1s; assay: SPR, Ab captured; pH 5.8, 3 uM Ca
Protocol: as §1

[4] = target: T1, human C1s; assay: SPR; KD pH 5.8 1.2 mM Ca / KD pH 7.4 1.2 mM Ca
Protocol: as §1

[5] = target: T1, human C1s; assay: SPR; KD pH 5.8 3 uM Ca / KD pH 7.4 1.2 mM Ca
Protocol: as §1

Binder | Kd [1] | koff [1] | kon [1] | Kd [2] | koff [2] | kon [2] | Kd [3] | koff [3] | kon [3] | KD 5(+)/7(+) [4] | KD 5(-)/7(+) [5]
B1 | 13.9 nM | 0.00476 s⁻¹ | 343000 M⁻¹ s⁻¹ | 14.1 nM | 0.00751 s⁻¹ | 534000 M⁻¹ s⁻¹ | 6.66 nM | 0.00351 s⁻¹ | 528000 M⁻¹ s⁻¹ | 1 | 0.5
B2 | 1.92 nM | 0.000672 s⁻¹ | 350000 M⁻¹ s⁻¹ | 5.01 nM | 0.00293 s⁻¹ | 585000 M⁻¹ s⁻¹ | 7.59 nM |  |  | 2.6 | 4
B3 | 3.25 nM | 0.000978 s⁻¹ | 301000 M⁻¹ s⁻¹ | 5.05 nM | 0.00282 s⁻¹ | 559000 M⁻¹ s⁻¹ | 11.3 nM |  |  | 1.6 | 3.5
B4 | 24.8 nM | 0.0103 s⁻¹ | 414000 M⁻¹ s⁻¹ | 26.2 nM | 0.0592 s⁻¹ | 2.26e+06 M⁻¹ s⁻¹ | 270 nM | 0.0012 s⁻¹ | 4460 M⁻¹ s⁻¹ | 1.1 | 10.9
B5 | 4.76 nM | 0.00255 s⁻¹ | 535000 M⁻¹ s⁻¹ | 10.6 nM | 0.0059 s⁻¹ | 557000 M⁻¹ s⁻¹ | 27.6 nM | 0.176 s⁻¹ | 6.4e+06 M⁻¹ s⁻¹ | 2.2 | 5.8
B6 | 25.5 nM | 0.0156 s⁻¹ | 612000 M⁻¹ s⁻¹ | 45.6 nM | 0.0222 s⁻¹ | 487000 M⁻¹ s⁻¹ | 1.3 nM | 0.00577 s⁻¹ | 4.42e+06 M⁻¹ s⁻¹ | 1.8 | 0.1
B7 | 684 nM | 0.016 s⁻¹ | 23300 M⁻¹ s⁻¹ | 4290 nM | 0.0178 s⁻¹ | 4140 M⁻¹ s⁻¹ | 215 nM | 0.00133 s⁻¹ | 6170 M⁻¹ s⁻¹ | 6.3 | 0.3
B8 | 1.16 nM | 0.000608 s⁻¹ | 523000 M⁻¹ s⁻¹ | 1.53 nM | 0.00124 s⁻¹ | 813000 M⁻¹ s⁻¹ | 9.95 nM | 0.0619 s⁻¹ | 6.23e+06 M⁻¹ s⁻¹ | 1.3 | 8.6
B9 |  | 8e-06 s⁻¹ | 47600 M⁻¹ s⁻¹ |  | 0.0127 s⁻¹ | 532000 M⁻¹ s⁻¹ |  | 0.00352 s⁻¹ | 711 M⁻¹ s⁻¹ | 142 | 29500
B10 | 0.804 nM | 0.000472 s⁻¹ | 587000 M⁻¹ s⁻¹ | 1.95 nM | 0.00149 s⁻¹ | 763000 M⁻¹ s⁻¹ | 8.12 nM | 0.17 s⁻¹ | 2.1e+07 M⁻¹ s⁻¹ | 2.4 | 10.1
B11 | 15.4 nM | 0.0074 s⁻¹ | 479000 M⁻¹ s⁻¹ | 24.6 nM | 0.0222 s⁻¹ | 905000 M⁻¹ s⁻¹ | 9.79 nM | 0.00376 s⁻¹ | 384000 M⁻¹ s⁻¹ | 1.6 | 0.6
B12 | 6.5 nM | 0.00218 s⁻¹ | 335000 M⁻¹ s⁻¹ | 20.1 nM | 0.0144 s⁻¹ | 717000 M⁻¹ s⁻¹ | 8.5 nM | 0.0056 s⁻¹ | 658000 M⁻¹ s⁻¹ | 3.1 | 1.3
B13 | 18.2 nM | 0.00897 s⁻¹ | 494000 M⁻¹ s⁻¹ | 15.5 nM | 0.00857 s⁻¹ | 553000 M⁻¹ s⁻¹ | 5.54 nM | 0.00296 s⁻¹ | 534000 M⁻¹ s⁻¹ | 0.9 | 0.3
B14 | 1.14 nM | 0.00047 s⁻¹ | 412000 M⁻¹ s⁻¹ | 3.16 nM | 0.00143 s⁻¹ | 451000 M⁻¹ s⁻¹ | 15.1 nM | 0.112 s⁻¹ | 7.43e+06 M⁻¹ s⁻¹ | 2.8 | 13.2
B15 | 9.03 nM | 0.00457 s⁻¹ | 507000 M⁻¹ s⁻¹ | 10.2 nM | 0.00613 s⁻¹ | 602000 M⁻¹ s⁻¹ | 5.07 nM | 0.00412 s⁻¹ | 812000 M⁻¹ s⁻¹ | 1.1 | 0.6
